The source of these data is the DeepSol protein solubility set.

The nature of this data set: soluble on expression in E. coli; label from the status in PepcDB or PDB records.
For the sequence “MGSDKIHHHHHHMDSVKLIDLSEMRDILRSVNPFPGRWSFITSVEYMLDSRLYVDSIGDDAKVVRATLGPHDRNILDFGTGSGVFAIALRQVLPELDISAVDTTDNKSQSHPDFSDGQAAAHQRLIYPPLAERFRISFNHYNGHLLPYPDGSFDAISAYAVIEHIPHEELDAAMREIARVLKDDGKLFVFKMPRKLALVEHVAGILGLGRHDTLYGDGEALRLFRSYGWKVEKTFKSNMVFDYPGWLTNRLYHPLKLIDRILYWSPWRLFAHHNNFVLRKLERPQL”, the “soluble on expression in E. coli” value is recorded as “not soluble”.

“MAWDLKVKMLGGNDFLVSVTNSMTVSELKKQIAQKIGVPAFQQRLAHQTAVLQDGLTLSSLGLGPSSTVMLVVQNCSEPLSILVRNERGHSNIYEVFLTQTVDTLKKKVSQREQVHEDQFWLSFEGRPMEDKELLGEYGLKPQCTVIKHLRLRGGGGDQCA”: the “soluble on expression in E. coli” value is given as “not soluble”.

For “MKILAFETSTEACSVALHVDGAVRERFELAPRRHAELALPWAEQLLAEAGISRRQLDAIAVGRGPGAFSGVRLAIGIVQGIALALDLPVLAISTLQVLALRAPAEASHVLACIDARMGEVYAGLFERQGEALLTLGSEVVCAPEAVLLPQSTPQWAGVGTGLAAGEMPLQQRFAGRLSSVDAAALPHAADLLTLALPAALRGEGVAPERVEPAYLRDNVALTLVEQQAARAAKAAAVPRLEHHHHHH”, the “soluble on expression in E. coli” value is given as “not soluble”.

“GPGSMASVSPSETGGTLITFLQQLRGTLVEIELKNASIVSGEIAYVDANMNTYMSHAKITSKGKNPVEVEEYMVRGSTIRYIIMPESLNTYDILKQASTKKNGASKK”: the “soluble on expression in E. coli” value was “soluble”.

Regarding “MGSDKIHHHHHHMKQPLAHRMRPTNIQEIIGQQHLVGEGKILWRMVQANHFQSMILYGPPGTGKTSIASAIAGSTGTPFRLLNAVTHNKKDMEVVVQEAKMHRHLVLILDEVHRLDKAKQDFLLPHLESGLLTLIGATTSNPFHAINSAIRSRCQIFELHALTEDDLLIGLKRALEDKEKGLGEYDVTVTPEALHHFANASGGDMRSAYNALELAVLSSFTTDDKAAEITLEIAEECLQKKSFVHDKGGDAHYDVLSAFQKSVRGSDVNAALHYLARLIEAGDLQSIGRRLLIMAYEDIGLASPQAGPRTLAAIESAERVGFPEARIPLANAVIELCLSPKSNSAYKALDAALHDLRNGQTGDIPSHLKDSHYKGAEALGRGIGYLYPHDHPNGWVQQQYLPDKIKNKQYYKPKMTGKFEQALSTVYERLQSSNKTKNKG”, the “soluble on expression in E. coli” value is listed as “not soluble”.

Take “MGSDKIHHHHHHMGLNLSKGDMYKFVNYTWNPIKGKCLHDCSYCYMKQINPNANPPRLAEYELNTDLGCGRSIFIGSSTDMFAEDIPSEWIARVLDYCYQNRNMLLPNAYLLQSKNPKRFLEFINHPIMERVVFCTTIETNRFYPEIMNKAPRIDERVEAMEEIARLGRPTMVTAEPLMQFDHEEMVSFIRRCSPKLVNIGRNSCRRIVLPEPTQEEVQQLIAELKSLKSFTKVNVKDNALEWCK”: the “soluble on expression in E. coli” value is recorded as “not soluble”.

Regarding “MGSDKIHHHHHHMDAANVDLKAFTEDFYHRLCGAHLESVKETLVYLKHETDVWVEVTTLLIPGENDSPEEIDAQTKWMMAALGPDVPLHFSAFHPDWKMKDKTNTPPETLTRARDIAIRNGLRYVYTGNVHDPAGGGTYCSGCGALLIGRDWYELSTWALTPEGHCRECGTPLPGRFEAAPGTWGRKRQPVRFQR”, the “soluble on expression in E. coli” value was “not soluble”.

In the case of “ASGSMQGDPDVLRLLNEQLTSELTAINQYFLHSKMQDNWGFTELAAHTRAESFDEMRHAEEITDRILLLDGLPNYQRIGSLRIGQTLREQFEADLAIEYDVLNRLKPGIVMCREKQDTTSAVLLEKIVADEEEHIDYLETQLELMDKLGEELYSAQCVSRPPTSAWSHPQFEK”, the “soluble on expression in E. coli” value is “soluble”.

Turning to “MGSDKIHHHHHHMYVNRIGTFRDHPDLYGVSVYFQGCDAKPKCYMCHNPETWHLSEEYKRPSEVVTKIIDEKLSSLLRYFPKAALVFLGGEPLAPYNREEMLSLSKMFKEKYGERLTVVLFTWRLPKDIVKENLLKYVQYVDEFVMGRYLHTYRRDGFPASKNQIHIDRRTFERMIEAVLRRGHYEGSVFVRKRI”, the “soluble on expression in E. coli” value was “not soluble”.

As for “MTSIRKWQVGESLPEVTLAPVSRLDLIKYAGASGDYNPIHTIDEEAKKAGLPGIIAHGMWTMGNLAKLFTPYYEEGFVQDYFVRFQSMVFLNDVITLKATVKEKDKKAIRFAVAAVNQHGKEVIKGEAVFSLYE”, the “soluble on expression in E. coli” value was “not soluble”.

Consider “GATNEVNVDAIKQLYMDCKNEADKFDVLTELYGLMTIGSSIIFVATKKTANVLYGKLKSEGHEVSILHGDLQTQERDRLIDDFREGRSKVLITTNVLARGIDIPTVSMVVNYDLPTLANGQADPATYIHRIGRTGRFGRKGVAISFVHDKNSFNILSAIQKYFGDIEMTRVPTDDWDEVEKIVKKVLKD”, for which the “soluble on expression in E. coli” value was “soluble”.

As for “SFRKGKKRHSSSSSQSSEISTKSKSVDSSLGGLSRSSTVASLDTDSTKSSGQSNNNSDTCAEFRIKYVGAIEKLKLSEGKGLEGPLDLINYIDVAQQDGKLPFVPPEEEFIMGVSKYGIKVSTSDQYDVLHRHALYLIIRMVCYDDGLGVGKSLLALKTTDASNEEYSLWVYQCNSLEQAQAICKVLSTAFDSVLTSEKP”, the “soluble on expression in E. coli” value is “soluble”.

Take “MSLSYLLALDAGTGSIRAVIFDLNGRQLAVGQAEWKHLSVDNVPGSMEFDLTTNWQLACQCIRQALDAARLSAADIQSVACCSMREGIVLYDRNGEAIWACANVDARASREVAELKEIHDFRFESEVYEVSGQTLALSAMPRLLWLAHHRPDIYRKAATITMISDWLAAKLSGELAVDPSNAGTTGMLDLFSRDWRPALLDMAGLRADMLSPVKETGTLLGAVTEAAAQQSGLRAGTPVVMGGGDVQLGCLGLGVVRAGQTAVLGGTFWQQVVNLPQVRTDPQMNIRVNPHVIPGMAQAESISFFTGLTMRWFRDAFCAEEKLIAERLGVDAYSLLEEMASRVPAGSHGVMPIFSDAMHFKQWYHAAPSFINLSIDPEKCNKATLFRALEENAAIVSACNLAQISQFSGVTFESLVFAGGGSKGALWSQILSDVTGLPVRVPVVREATALGCAIAAGTGAGLYDDMASTGERLVSWHREFTPNPQHRELYQEMMSKWQTVYADQLGLVDSGLTTSMWQAPGLERRQRVASSPSEGHHHHHH”: the “soluble on expression in E. coli” value was “soluble”.

For “DIHQEMDREELELEEVDLYRMNSQDKLGLTVCYRTDDEDDIGIYISEIDPNSIAAKDGRIREGDRIIQINGIEVQNREEAVALLTSEENKNFSLLIARPELQLDEGWMDDD”, the “soluble on expression in E. coli” value is “soluble”.

For “MKYQVKQVAEISGVSIRTLHHYDNIELLNPSALTDAGYRLYSDADLERLQQILFFKEIGFRLDEIKEMLDHPNFDRKAALQSQKEILMKKKQRMDEMIQTIDRTLLSVD”, the “soluble on expression in E. coli” value was “soluble”.

For “MSLAADTPTTCCFSYTSRQIPQNFIADYFETSSQCSKPGVIFLTKRSRQVCADPSEEWVQKYVSDLELSA”, the “soluble on expression in E. coli” value is “soluble”.

For “MIRTIERIITSTGFSLQHSDNGEITGLFYHCKLSSAYQPVFEAARNNIIGQEARIRADLNGNGEIQLSPWHIFALAPDDEQLIKLDRLCRTIHALNFLDNITNKQMKLFVSVQPRLLESVKDDHGSAFEQILDIIGIRTSRIVIEIPVEANRDWRLLKRVIMNYRAHGYLISVNYSGTNNDRISELGKLYPNVIRIDARDLLRRSVLDPLIVTAHNQGADVLVGNIETSYQLTDAIHAGADLLQGNFLARYSRKADNMLTPFSWQIPDERNGYRFDNESLQENQPYRSI”, the “soluble on expression in E. coli” value is “not soluble”.

For the sequence “MAYLVAVTACVSGVAHTYMAAERLEKLCLLEKWGVSIETQGALGTENRLADEDIRRADVALLITDIELAGAERFEHCRYVQCSIYAFLREPQRVMSAVRKVLSAPQQTHLILE”, the “soluble on expression in E. coli” value was “soluble”.

Take “SGRFSIKAKNYFLTYPKCDLTKENALSQITNLQTPTNKLFIKICRELHENGEPHLHILIQFEGKYNCTNQRFFDLVSPTRSAHFHPNIQGAKSSSDVKSYIDKDGDVLEWGTFQIDGR”: the “soluble on expression in E. coli” value was “soluble”.

In the case of “MLEAPLLSICIPAYNRPNWLQRGLESIAVGEGSDIEIVITDDSDTDQGQAIASEVLKNWSGSWCYEHHQQPLGMAQNWNRAIQWATGQYVMVLHDDDFFLPQGLGLLVNKLRQLGSSSPVLLFGVRVVDAQERVVKRQGFRQDKLLPPHDALIRLFSDSSFVRFPAMVIRRDLFTEVGYFNPDWREPCDLEMWMRLFARYGVYCCREATVAYRVHGQALTMGSFHGETVNILLRLFGELEKLNILTTRDIEFCKGLFFHQYILAGAWRQLRRRRWREFKQVMGLFDLPELKSLSCPVKWRFLRGLFSLTLEHHHHHH”, the “soluble on expression in E. coli” value was “not soluble”.

Turning to “MANSPKKPSDGTGVSASDTPKYQHTVPETKPAFNLSPGKASELSHSLPSPSQIKSTAHVSSTHNDAAGNTDDSVLPKNVSPTTNLRVESNGDTNNMFSSPAGLALPKKDDKKKNKGTSKADSKDGKASNSSGQNAQQQSDPNKMQDVLFSAGIDVREEEALLNSSINASKSQVQTNNVKIPNHLPFLHPEQVSNYMRKVGKEQNFNLTPTKNPEILDMMSSACENYMRDILTNAIVISRHRRKAVKINSGRRSEVSAALRAIALIQKKEEERRVKKRIALGLEKEDYENKIDSEETLHRASNVTAGLRAGSKKQYGWLTSSVNKPTSLGAKSSGKVASDITARGESGLKFREAREEPGIVMRDLLFALENRRNSVQTIISKGYAKIRD”, the “soluble on expression in E. coli” value was “not soluble”.

“MAHHHHHHMSENVAAAQRRWQAGMHEVEAYLNALDSARADSAKAGLYHRAQQCMQHMEKIIRLLAKRIAREANIMAERARQALTEQQRLLQRNLRKRWKTKMLVYEENASAMLAAAEQHHYAERVREDERAHEELRSVRAGGSMAHSRSSKVQHLQSEIQLYLRQHRYREAERAQAQLSRFEKQEQQSQQRNLTHLQEQRLQAMRMKQEEQLAKMKAAYQQEKQEITRTCRAELDAMTRQHEVALQAVEERRLFLHERVQAILKAYNDADTLDPRAAGQKLIRISQLLWTSREVQQSSKRI”: the “soluble on expression in E. coli” value is “not soluble”.

With “MSLTYDLIITDSHVMTPNGMVEKNIVIDSGKIKLITNDTPTCDKKIKGSGLVSIPGVIDPHVHYGVYSPIDQAAKTESHAAAIGGVTTMIRMFRLEGSYKDSLQKHLLASQNSHYIDYTIHASIFDTSQIDEMKYCTENQILSFKIYMNLGGDVGHVYMEMNPGEEKLISSHVNVTNELVEKIVKRAGELKCPVLVHAEDYQECACAMKTEQEKKHDGLNSWSESRSPDFEAKSIKTICEYGRKYDCVIYFVHIGSKLALEQIQIEKNNGTKIFVETCPHYLTLSHETQDGYLAKVMPPIRTKNDVEYVWESLQKNHINTIGTDHVANQLKLKLGGDDVWGALAGFPGIGTSLPILLSEGINKNRITLDQLVNLTSANTSKIFGLSDKGNISTGYEGHHHHHH”, the “soluble on expression in E. coli” value is “soluble”.

Regarding “MSLADPIKIGVIAEAQAIAGASIPQAAQLAAEEINAKGGIDGRKIEIVSYDNHSSSADSVRAFQRAVNEDKVNAVIASYISEVVLALMPWASRLKTPFVTPGAASNEITKAINKDYEKNKYTFHGYLTSGELAQSVCDAAKDLLVDARQMKSAVIMSEDAAWTKPLDVGYQECLPKVGLKVLDHIRFSPDTTDFTPIFNKIEGSKPDVIITGISHVGVQPTVQWKNQQVPIPMFGIASQATNETFGKDTNNASDGVLYQGVSGPGVAVTSKSVPFAENFKKKYGNYPSYAGYTAYDEVYYIAEAVKRAGSTDGEKLVEALEKTDYEGTIGRVQFYGKDEPFTHGLKYGKGLLTGLMLQWQDGKQVAVWPPEVAKAEGHHHHHH”, the “soluble on expression in E. coli” value is listed as “soluble”.
